Source: article PMC11782696, “Claudin-11 regulates immunological barrier formation and spermatogonial proliferation through stem cell factor” (Communications Biology, 2025)

Biological target: T1, MBP fusion protein of the PDZ1 domain (aa 19-113) of mouse ZO1 (mouse, UniProt P39447 19-113)
T1 construct: zonula occludens 1 (ZO1), mouse, PDZ1 domain, aa 19-113 of the 1,745-amino-acid protein; Expression vector provided by Masahiko Itoh; also called MBP-zPDZ1; PDZ1 of ZO1; source: E. coli DH5α, purified (amylose resin, eluted with 10 mM maltose)
T1 sequence (looked up): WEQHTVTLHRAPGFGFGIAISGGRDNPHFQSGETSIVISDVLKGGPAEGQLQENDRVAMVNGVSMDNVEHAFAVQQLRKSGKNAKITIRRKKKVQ
Assay: pull-down; GST-fused proteins on Glutathione Sepharose 4B beads incubated with eluted MBP-fused proteins at 4 °C overnight in buffer A (50 mM Tris-HCl pH 8.0, 50 mM NaCl, 1 mM EDTA, 1 mM DTT); washed three times; SDS-PAGE and Coomassie Brilliant Blue staining
Conditions: both partners purified

binding result: binds
B1: GST fusion protein of the C-terminal 29 amino acids of mouse CLDN11 (aa 179-207) (domain or fragment, UniProt Q60771 179-207, looked up)
chain: SGDAQSFGENRFYYSSGSSSPTHAKSAHV
notes: claudin-11 (CLDN11), mouse, C-terminal 29 amino acids, aa 179-207 of the 207-residue protein; also called GST-CL11; claudin-11 C-terminus
